According to patent publication US20240002497A1 (Merck Sharp & Dohme, published 2024):
Like-named read-outs stand apart in the source and are kept apart here. Each block holds one binder with its values, some of them ahead of it.

How the values were obtained:
[1] = biological target: huNav1.7α + β1 on HEK cells (human, UniProt Q15858 1-1988; Q07699 19-218); experiment: binding FACS, HEK cells (HEKa/b1)
[2] = biological target: T1, huNav157 chimera 14 on cells (without β subunits) (human (huNav1.7α/huNav1.5α chimera)); experiment: binding FACS, HEK FlpIn cells
T1 construct: also called HEK FlpIn Nav157ch14

[3] = biological target: T2, huNav157 chimera 14 + β1-β2-β3 on cells (human (huNav1.7α/huNav1.5α chimera)); experiment: binding FACS, HEK FlpIn cells
T2 construct: Extracellular loops and transmembrane helices of Nav1.7α, intracellular loops of Nav1.5α; P2A linkers are cleaved co-translationally; also called HEK FlpIn Nav157ch14-β1-β2-β3; huNav157 chimera 14-beta1-beta2-beta3

[4] = biological target: T3, huNav1.7α on HEK cells (without β subunits) (human, UniProt Q15858 1-1988); experiment: binding FACS, HEK cells (HEKa)
T3 construct: also called HEKa huNav1.7α

rhNav1.7α + β1-β2-β3 [5] = biological target: T4, rhNav1.7α + β1-β2-β3 (rhesus monkey); experiment: competition FACS vs EC40 of F103275B05(N93R), CHO FlpIn
T4 construct: also called rhNav1.7-beta1-beta2-beta3; rhNav1.7-β1-β2-β3

huNav1.7α + β1 = biological target: T5, huNav1.7α + β1 (human); experiment: competition FACS vs EC25 of F103275B05(N93R), HEK
T5 construct: HEK293 cells; also called huNav1.7-beta1; huNav1.7-β1

huNav1.7α = biological target: T6, huNav1.7α (human, UniProt Q15858 1-1988); experiment: competition FACS vs EC25 of F103275B05(N93R), HEK
T6 construct: HEK cells expressing the α subunit without β subunits; also called huNav1.7 (alpha-subunit); Human Nav1.7α

huNav1.7α + β1-β2-β3 [6] = biological target: T7, huNav1.7α + β1-β2-β3 (human, UniProt Q15858 1-1988; A5A6L6 19-218; O60939 30-215; Q2KI11 23-215); experiment: competition FACS vs EC25 of F103275B05(N93R), HEK FlpIn
T7 construct: also called huNav1.7-beta1-beta2-beta3; huNav1.7-β1-β2-β3

huNav1.7α + β1-β2-β3 [7] = biological target: T7, huNav1.7α + β1-β2-β3; experiment: competition FACS vs EC25 of F103275B05(N93R), CHO FlpIn
huNav1.7α + β1-β2-β3 [8] = biological target: T8, huNav1.7α + β1-β2-β3 (human, UniProt Q15858 1-1988; A5A6L6 19-218; O60939 30-215; Q2KI11 23-215); experiment: binding FACS, CHO FlpIn cells
T8 construct: Cell line (CHO FlpIn, HEK FlpIn, transient HEK293T) is named under assay; also called huNav1.7-beta1-beta2-beta3; human Nav1.7α with Navβ1, Navβ2 and Navβ3
Experimental: (§1) Binding of the ISVDs to cell-expressed Nav1.7α was detected via murine anti-Flag (Sigma, catalog #F1804). Briefly, cells were resuspended in FACS buffer (PBS, 10% FBS, NaN₃) and transferred to a 96-well V-bottom plate at 1×10^5 cells/well. Purified FLAG3-tagged ISVD was diluted in FACS buffer and added to the cells for 30 minutes at 4° C. […] Prior to the read-out, the samples were resuspended in 1 μg/mL propidium iodide (Sigma, catalog #P4170) to exclude dead cells. Between each step, the cells were centrifuged for 5 minutes at 200 grams and washed with 100 μL/well FACS buffer.
(§2) Based on the huNav1.7α model (as described above) the following huNav1.7α-rhNav1.7α polymorphisms can be allocated to the extracellular part of DI: N146S, F276V, R277Q, E281V and V331M. The first of the residues is in DI S1-S2 whereas the latter four residues belong to DI S5-S6. FACS binding studies (as described above) were performed to stable CHO FlpIn cell lines expressing different variants of huNav1.7+β1−β2−β3 each including one of the four possible extracellular huNav1.7α-rhNav1.7α polymorphisms in the DI S5-S6 region: F276V, R277Q, E281V and V331M (Table 23 and FIGS. 22A-22F). Individual polymorphisms were each sufficient to abolish the binding of F0103265B04, F0103362B08, F010301080, and F0103262B06 to huNav1.7α, recapitulating the absence of binding on rhNav1.7α. F0103262CO2, F0103275B05 and F0103387G05 are more subtly affected in terms of EC50 or Bmax by some of the polymorphisms. None of the individual DI S5-S6 polymorphisms by themselves appear to have an impact on the binding of the two rhNav1.7α cross-reactive ISVDs F0103387G04 and F0103464B09. In addition, no effect on binding of the two ISVDs was observed (data not shown) for the three extracellular DIV VSD huNav1.7α-rhNav1.7α polymorphisms Q1530P, H1531Y and E1534D (FIG. 22G).

[9] = biological target: T9, huNav1.7α(R277Q) + β1-β2-β3 (human); experiment: binding FACS, CHO FlpIn cells
T9 construct: polyprotein as encoded; the entry already carries R277Q; also called huNav1.7(R277Q)-beta1-beta2-beta3
Experimental: as §1, §2

[10] = biological target: T10, huNav1.7α(E281V) + β1-β2-β3 (human); experiment: binding FACS, CHO FlpIn cells
T10 construct: polyprotein as encoded; the entry already carries E281V; also called huNav1.7(E281V)-beta1-beta2-beta3
Experimental: as §1, §2

[11] = biological target: T11, huNav1.7α(V331M) + β1-β2-β3 (human); experiment: binding FACS, CHO FlpIn cells
T11 construct: polyprotein as encoded; the entry already carries V331M; also called huNav1.7(V331M)-beta1-beta2-beta3
Experimental: as §1, §2

[12] = biological target: T12, huNav1.7α(F276V) + β1-β2-β3 (human, UniProt Q15858 1-1988; A5A6L6 19-218; O60939 30-215; Q2KI11 23-215); experiment: binding FACS, CHO FlpIn cells
T12 construct: polyprotein as encoded, P2A sites liberate the subunits; the entry already carries F276V; also called huNav1.7(F276V)-beta1-beta2-beta3
Experimental: as §1, §2

rhNav1.7α + β1-β2-β3 [13] = biological target: T13, rhNav1.7α + β1-β2-β3 (rhesus monkey); experiment: binding FACS, CHO FlpIn cells
T13 construct: also called rhNav1.7-beta1-beta2-beta3; rhesus Nav1.7α
Experimental: as §1, §2

huNav1.7α + β1-β2-β3 [14] = biological target: T8, huNav1.7α + β1-β2-β3; experiment: competition FACS, HEK FlpIn cells, vs EC30 of CMYC3-F0103265B04
Experimental: Competition FACS assays were performed with CMYC3-tagged ISVD F0103265B04 or F0103275B05(N93R) affinity maturation variant on a HEK FlpIn huNav1.7α+β1−β2−β3 transgenic cell line. Briefly, cells were resuspended in FACS buffer (PBS, 2% FBS, 0.05% NaN₃) and 1×10⁵ cells/well were transferred to 96-well V-bottom plates. Cells were subsequently resuspended in a 100 μL mixture of purified ISVD (dilution series) and CMYC3-tagged ISVD F0103265B04 (at a concentration equivalent to EC30) followed by incubation for 1.5 hours at 4° C. […] Between each step, the cells were centrifuged for 5 minutes at 200 g and washed with 100 μL/well FACS buffer. Prior to the read-out, the samples were resuspended in 5 nM TOPRO3 (Molecular probes, catalog #T3605) to exclude dead cells. F0103262CO2, F0103262B06, F0103265A11, F0103265B04, F0103275B05, F0103362B08, and F0103387G04 all compete with F0103265B04 for binding to huNav1.7α, in contrast to an irrelevant control ISVD (IRR) (see Table 21 and FIG. 15A, FIG. 15B, FIG. 15C, and FIG. 15D).

huNav1.7α + β1 (HEKa/β1) = biological target: T14, huNav1.7α + β1 (HEKa/β1) (human, UniProt Q15858 1-1988; Q07699 19-218); experiment: binding FACS, HEKa/β1 cells
T14 construct: also called HEKa/β1 huNav1.7α
In short: (§3)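 FLAG3-tagged ISVD, 30 min, 4° C, FACS buffer (PBS/10% FBS/NaN₃); 1×10^5 cells/well; detection murine anti-Flag; PI 1 μg/mL live gate; washes between steps.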

huNav1.7α + β1-β2-β3 [15] = biological target: T8, huNav1.7α + β1-β2-β3; experiment: binding FACS, CHO FlpIn cells; remark: listed apart in the source
In short: as §3

huNav1.7α (HEKa) = biological target: T15, huNav1.7α (HEKa) (human, UniProt Q15858 1-1988); experiment: binding FACS, HEKa cells
T15 construct: also called HEKa huNav1.7α
In short: as §3

B3: F010301080 (VHH)
VHH: EVQLVESGGGLVQPGGSLRLSCAASGMLFNANTQGWYRQAPGKQRELVAFIFWGGYVTYNDSVKGRFTISRDNAKRTMYLQMNSLKPEDSAIYYCSLSRYLGQGTLVTVSS
EC50 (huNav1.7α + β1-β2-β3 [8]): 3.4 nM | EC50 [9]: 3.2 nM | EC50 [10]: 2.5 nM | binding result [11]: no binding | EC50 [12]: 2.6 nM | binding result (rhNav1.7α + β1-β2-β3 [13]): no binding

B4: F0103362B08 (VHH)
VHH: EVQLVESGGGLVQAGGSLRLSCAASVRPFSTSAMGWFRQAPEKEREAVAGILWNGIVTYYADSVKGRFTISRDNAKNEVYLQMNKLKPEDTAVYYCALDRDYGGRSFSAYEYEYWGQGTLVTVSS
notes: entry includes the FLAG-HIS6 tag; also called F0103362B08 (parental)-FLAG-HIS6
EC50 (huNav1.7α + β1-β2-β3 [8]): 43 nM | EC50 [9]: 34 nM | EC50 [10]: 34 nM | binding result [11]: no binding | EC50 [12]: 42 nM | binding result (rhNav1.7α + β1-β2-β3 [13]): no binding | IC50 (huNav1.7α + β1-β2-β3 [14]): 150 nM | EC50 (huNav1.7α + β1 (HEKa/β1)): 34 nM | EC50 (huNav1.7α + β1-β2-β3 [15]): 110 nM | EC50 (huNav1.7α (HEKa)): 19 nM

Continued, in another order:

EC50 [1]: 31 nM | EC50 [4]: 19 nM
B1: F010301635 (VHH)
VHH: EVQLVESGGGVVQPGGSLRLSCAASGSIFNINSMAWYRQAPGKQRELVASSTNGGSTNYADSVKGRFTISRDNAKRVYLQMNSLRPEDTALYYCNALLQPSIYDISRTYWGQGTLVTVSS
notes: also called F0103275B05(L11V, R39Q, T83R, V89L)
EC50 [2]: 16 nM | EC50 [3]: 35 nM

IC50 (rhNav1.7α + β1-β2-β3 [5]): 2 nM | IC50 (huNav1.7α + β1): 110 nM | IC50 (huNav1.7α): 67 nM | IC50 (huNav1.7α + β1-β2-β3 [6]): 8.7 nM | IC50 (huNav1.7α + β1-β2-β3 [7]): 8.1 nM
B2: F010302380 (bispecific antibody)
chain: DVQLVESGGGLVQPGGSLRLSCAASGSIFNINSMAWYRRAPGKQRELVASSTNGGSTNYADSVKGRFTISRDNAKRVYLQMNSLTPEDTAVYYCRALLQPSIYDISRTYWGQGTLVTVSSGGGGSGGGGSGGGGSGGGGSGGGGSGGGGSGGGGSGGGGSGGGGSGGGGSEVQLVESGGGLVQAGGSLRLSCVTSGRTSDLSTMNWFRQAPGKEREFVARITRRGSTYYAESVKERFIISRDNAKNTVYLQMNSLKPEDTANYYCTAASEMGYHYRGQGTQVTVSSGAADYKDHDGDYKDHDIDYKDDDDKGAAHHHHHH
notes: also called F0103275B05(E1D, N93R)-50GS-F0103505D08(L108Q)-FLAG3-HIS6
